Data reported in US20150038682A1.

Target: death receptor 4 (DR4) on Ramos cells (human) (UniProt O00220)
Experiment: cell-based or functional assay

B1: HuYON007 IgG1 (antibody, V domains shown)
VH: QVTLRESGPALVKPTQTLTLTCTFSGFSLSTSGMGVSWIRQPPGKALEWLAHIYWDDDKRYNPSLKSRLTISKDTSKNQVVLTMTNMDPVDTATYYCTRRGEYGNFDYWGQGTLVTVSS
VL: QTVVTQEPSFSVSPGGTVTLTCRSSSGAVTTSNFANWVQQTPGQAPRGLIGGTNNRAPGVPDRFSGSLLGNKAALTITGAQADDESDYYCALWYSNHWVFGGGTKLTVL
**Q.** What does the source list for B1?
**A.** viability of Ramos cells at 6.2 ng/ml antibody: 100%; viability of Ramos cells at 111 ng/ml antibody (alamar Blue, overnight): 78.3%
